According to the nanobody polyreactivity screen of Harvey et al. (2022):

Test: yeast display, Sf9 membrane polyspecificity reagent, FACS + sequencing; frameworks hold sequencing errors
How it was run: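 Using colony PCR, genes from sorted yeast display clones were amplified, then sequenced on MiSeq at 2 × 250 and filtered by CDR length. The clones had been stained with 10% biotinylated, detergent-solubilized Sf9 membrane reagent for 1 hour at 4 °C and sorted by FACS into low and high (top ~1%) gates on anti-HA and streptavidin fluorescence. Polyreactivity labels come from the gate of origin.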

Sequence | polyreactivity (PSR sort gate)
QVQLVESGGGLVQAGGSLRLSCAASGSTFSLYAMGWYRQAPGKERELVASITWGGGSTYADSVKGRFTISRDNAKNTVYLQMNSLKPEDTAVYYCARKYRYRVLYDFAYDHWGQGTQVTVSS | low polyreactivity
QVQLVESGGGLVQAGGSLRLSCAASGSTFSNVMGWYRQAPGKEREFVARISKSGGSTYYADSVKGRFTISRDNAKNSVYLQMNSLKPEDTAVYYCATGRFRRTEYGGRYDYWGQGTKVTVSS | high polyreactivity
QVQLVESGGGLVQAGGSLRLSCAASGSTFSNYALGWYRPAPGKERELVAAITGRGGRTYYADSVKGRFTISRDNAKNTVYLQMNSLKPEDTAVYYCNADYWSRMDYWGQGTQVTVSS | high polyreactivity
QVQLVESGGGLVQAGGSLRLSCAASGSTFSNYAMGWYRQAPGKERELVAAISRRGTSTYYADSVKGRFTISRDNAKNTVYLQMNSLKPEDTAVYYCAADYFRYTYDYWGQGTQVTVSS | high polyreactivity
QVQLVESGGGLVQAGGSLRLSCAASGSTFSNYAMGWYRQAPGKERELVAVITRGASTYYADSVKGRFTISRDNAKNTVYLPMNSLKPEDTAVFYCNVPIRGQLVHTYPYDYWGQGTQVTVSS | high polyreactivity
QVQLVESGGGLVQAGGSLRLSCAASGSTFSPNARGWYRQAPGKERELVAAITYRGANTYYADSVKGRFTISRDNAKNTVYLQMNSLKPEDTAVYYCAAENWIGAYYWGQGTQVTVSS | low polyreactivity
QVQLVESGGGLVQAGGSLRLSCAASGSTFSPNVMGWYRQAPGKERELVAAISSSTGSTNYADSVKGRFTISRDNAKNTVYLQMNSLKPEDTAVYYCAVDPYVHWTTKLYDYWGQGTQVTVSS | low polyreactivity
QVQLVESGGGLVQAGGSLRLSCAASGSTFSPYAMGWYRQAPGKERELVAAISSSGGSTYYADSVKGRFTISRDNAKNTVYLQMNSLKPEDTAVYYCRSFTSAQTLDYWGQGTQVTVSS | high polyreactivity
QVQLVESGGGLVQAGGSLRLSCAASGSTFSPYAMGWYRQAPGKERELVAGITGNGGSTRYADSVKGRFTISRDNAKNTVYLQMNSLKPEDTAVYYCAARWTRQRYRTSYYSWGQGTQVTVSS | high polyreactivity
QVQLVESGGGLVQAGGSLRLSCAASGSTFSQNAMGWYRQAPGKERELVAVISSSGGRTNYADSVKGRFTISRDNAKNTVYLQMNSLKPEDTSVYYCAKRLRVLYYYWGQGTQVTVSS | high polyreactivity
QVQLVESGGGLVQAGGSLRLSCAASGSTFSRNAMGWYRPAPGKERELVAAISSSGGRTYYADSVKGRFTISRDNAKNTVYLQMNSLKPQDTAVYYCAADWWRVEMDYWGQGTQVTVSS | low polyreactivity
QVQLVESGGGLVQAGGSLRLSCAASGSTFSRNAMGWYRQAPGKERELVATISRSGRTNYADSVKGRFTISRDNAKNTVYLQMNSLKPEDTAVYYCNAGYRRSYEYWGQGTQVTVSS | low polyreactivity
QVQLVESGGGLVQAGGSLRLSCAASGSTFSRNVMGWYRQAPGKERELVAAISRGGSTNYADSVKGRFTISRENAKNTVYLQMNSLKPEDTAVYYCNAPRLGKFYYWGQGTQVTVSS | low polyreactivity
QVQLVESGGGLVQAGGSLRLSCAASGSTFSRYAMGSYRQAPGKERELVAAITGTGGRTYYADSVKGRFTISRDNAKNTVYLQMNSLKPEDTAVYYCAAQRWTVKYNYWGQGTQVTVSS | high polyreactivity
QVQLVESGGGLVQAGGSLRLSCAASGSTFSRYAMGWYRHAPGKERELVAAISSSGGGTYYADSVKGRFTISRDTAKNTVFFQMNSLKPEDTAVYYCAKSYRRRQGYYYWGQGTQVTVSS | high polyreactivity
QVQLVESGGGLVQAGGSLRLSCAASGSTFSRYAMGWYRQAPGKERELVAAISQGGGRTYYADSVKGRFTISRDNAKNTVYLQMNSLKPEDTAVYYCAAREYYRKPYDHWGQGTQVTVSS | high polyreactivity
QVQLVESGGGLVQAGGSLRLSCAASGSTFSRYAMGWYRQAPGKERELVAAISSSGGGTYYADSVKGRFTISRDNAKNTVYLQMNSLKPEDTAVYYCAAKRVHGATGYWGQGTQVTVSS | high polyreactivity
QVQLVESGGGLVQAGGSLRLSCAASGSTFSRYAMRWYRQAPGKEMELVAAISSRGGSTYYADSVKGRFTISRDNAMNTVYLQMNSLKPEDTAFYYCAVKSYRLTGRGYWGQGTQVTVSS | high polyreactivity
QVQLVESGGGLVQAGGSLRLSCAASGSTFSRYTMGWSRQAPGKERELVAAISYRGGSTYYADSVKGRFTISRDNAKNTVYLQMNSLKPEDTAVYYCAADAEGSASKYDYWGQGTQVTVSS | low polyreactivity
QVQLVESGGGLVQAGGSLRLSCAASGSTFSRYVMGWYRQAPGKERELVAAISSTGGSTYYADSVKGRFTISRDNAKNTVYLQMNSLKPEDTAVYYCNTTYSYGVAAARYYYWGQGTQVTVSS | high polyreactivity
QVQLVESGGGLVQAGGSLRLSCAASGSTFSRYVMVWYRQAPGKERELVAAISRSGSTYYADSVKGRFTISRDNAMNTVYLQMNSLKPEDTAVYYFDATGSKSAGYGYWGQGTQVTVSS | high polyreactivity

Sequence | polyreactivity (PSR sort gate)
QVQLVESGGGLVQAGGSLRLSCAASGSTFSSNAMGWYRQAPGKEREFVAGISRSGGSTYYADSVKGRFTISRDNAKNTVYLQMNSLKPEDTAVYYCAARGGPGFKFGYWGQGTQVTVSS | high polyreactivity
QVQLVESGGGLVQAGGSLRLSCAASGSTFSSNAMGWYRQAPGKERELVAAINRTGNTYYADSVKGRFTISRDNAKNTVYLQMNSLKPEDTAVYYCNTDLNLYRGGGYWGQGTQVTVSS | low polyreactivity
QVQLVESGGGLVQAGGSLRLSCAASGSTFSSYAMGWYRQAPGKEREFVAAISRSGVRTYYADSVKGRFTISRDNAKNSVYLQMNSLNPEDTVVYYCAAVSSLSYSFPYDYWGQGTQVTVSS | high polyreactivity
QVQLVESGGGLVQAGGSLRLSCAASGSTFSSYAMGWYRQAPGKERELVAAITSSGGSTYYADSVKGRFTISRDNAKNTVYLQMNSLKPEDTAVYYCAAADVIFWLYYYWGQGTQVTVSS | low polyreactivity
QVQLVESGGGLVQAGGSLRLSCAASGSTFSSYAMGWYRQAPGKERELVARITSGGSTYYADSVKGRFTISRDNAKNTVYSQMNSLKPEDTAVYYCAARGYYYRSRVSQFKYDYWGQGTQVTVSS | high polyreactivity
QVQLVESGGGLVQAGGSLRLSCAASGSTFSTNAMGWYRQAPGKERDLVAAISRSGGSTYYADTVKRRFTISRDIAKITVYLQMNSLKPEVSAVYYCARYSYRGTNVSYDYWGQGTQVTVSS | high polyreactivity
QVQLVESGGGLVQAGGSLRLSCAASGSTFSTNAMGWYRQAPGKERELVAAISYSGGSTYYADSVKGRFTISRDNAKNTVYLQMISLKPEDTAVYYCAADGYYYNSGGRYYEFYYWGQGTQVTVSS | low polyreactivity
QVQLVESGGGLVQAGGSLRLSCAASGSTFSTYAMGSYRQAPGKERELVATISKRGGSTYYADSVKGRFTISRDNAKNTVYLQMNSLKPEDTAVYYCATPRYRYYTIYDYGYWGQGTQVTVSS | high polyreactivity
QVQLVESGGGLVQAGGSLRLSCAASGSTFSTYAMGWYRQAPGKERELVAAIRSGGSTYYADSVKGRFTISRDNAKNTVYLQMNSLKPEDTAVYYCAAKPRNYSYRYYYWGQGTQVTVSS | high polyreactivity
QVQLVESGGGLVQAGGSLRLSCAASGSTFSVNAMGWYRQAPGKEREMVAAISSTGSTKYADSVKGRFTISRDNAKNTVYLQMNSLKPEDTAVYCAASNADYEYDPFSVWYFSPYDYWGQGTQVTVSS | low polyreactivity
QVQLVESGGGLVQAGGSLRLSCAASGSTFSVYAMGWYRQAPGKEMELVATITWNGGRTYYADSVKGRFTISRDNAKNTVYLQMNSLKPEDTAVYYCASPWLKPGNGIYGGYGYWGQGTQVTVSS | high polyreactivity
QVQLVESGGGLVQAGGSLRLSCAASGSTFSVYAMGWYRQAPGKERELVADITRGGSTYADSVKGRFTISRDNAKNTVYLQMNSLKPEDTAVYYCAREEVTPYPLYWSTREYDYWGQGTQVTVSS | low polyreactivity
QVQLVESGGGLVQAGGSLRLSCAASGSTFSVYAMGWYRQAPGKERELVATIRGRGGSTSYADSVKGRFTISRDNAKNTVYLQMNSLKPEDTAVYYCAARVVRDWASKRIILALSNYDYWGQGTQVTVSS | high polyreactivity
QVQLVESGGGLVQAGGSLRLSCAASGSTFSWYAMGWYRQAPGKERELVAAISSGGSTNYADSVKGRFTISRDNAKNTVYLQMNSMKPEDTAVYYCAAVWSRFLISYSTGWWFEYWGQGTKVTVSS | low polyreactivity
QVQLVESGGGLVQAGGSLRLSCAASGSTFSWYAMGWYRQAPGKERELVAAITRSGGRTYYADSVKGRFTISRDNAKNTVYLQMNSLKPEDTAVYYCAAVQYKSPHNYWGQGTQVTVSS | high polyreactivity
QVQLVESGGGLVQAGGSLRLSCAASGSTFSYNAMGWYRQAPGKERELVAAISGSGGTTYYADSVKGRFTISRDNAKNTVYLQMNSLKPEDTAVYYCAARPFRSWRYDYWGQGTQVTVSS | low polyreactivity
QVQLVESGGGLVQAGGSLRLSCAASGSTFSYNAMGWYRQAPGKERELVAAISRGDVSTYYADSVKGRFTISRDNAKNTVYLQMNSLKPEDSAVYYWAAYWYGSQYKWRYDYWGQGTQGTVSS | low polyreactivity
QVQLVESGGGLVQAGGSLRLSCAASGSTFSYNAMGWYRQAPGKERELVAAISWSGGSTYYADSVKGRFTISRDNAKNTVYLQMNSLKPEDTAVYYCASDSPYGYYEGDYWGQGTQVTVSS | low polyreactivity
QVQLVESGGGLVQAGGSLRLSCAASGSTFSYNAMGWYRQAPGKERELVAAITSRGGSTRYADSVKGRFTISRDNAKNTVYLQMNSLKPEDTAVYYCARPYSYYPYSTVNYWGQGTQVTVSS | high polyreactivity
QVQLVESGGGLVQAGGSLRLSCAASGSTFSYNAMGWYRQAPGKERELVAGITGRGGSTYYADSEKGRFTISRDNAKNTVYLQMYSLKPEDTAVYYCAADARSYGYPDDFWGQGTQVTVSS | high polyreactivity
